This is an account of results in the supplement of paper PMC10598134.

A short description of this data set: collision cross section of modified peptide (TIMS, N2, iRT-aligned); higher = larger / more extended gas-phase ion. In outline: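 Collision cross section values rest on the Mason-Schamp equation applied to calibrated, run-aligned mobility data from synthetic peptides. Mobility (1/K0) was calibrated with three reference ions and aligned per run to the median iRT peptide deviation, and 1–3 technical replicates of the most abundant feature per charge state were averaged. Data came from a timsTOF Pro/HT in dda-PASEF mode (nitrogen, ~2.4 mbar) after a 120-min nanoflow C18 gradient at 60 °C.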

[1] abbreviates: charge state: 2, modification: hydroxyisobutyryl.
Where [2] appears, read: charge state: 3, modification: hydroxyisobutyryl.
[3] abbreviates: charge state: 2, modification: HexNAc (ST).
[4] abbreviates: charge state: 2, modification: Malonyl.
[5] abbreviates: charge state: 2, modification: Succinyl.
The mark [6] stands for this setting: charge state: 3, modification: GlyGly (K).
[7] abbreviates: charge state: 3, modification: Trimethyl (K).
Setting [8] is: charge state: 2, modification: Crotonyl.
Setting [9] is: charge state: 3, modification: Crotonyl.
Where [10] appears, read: charge state: 2, modification: Phospho (Y).
The mark [11] stands for this setting: charge state: 2, modification: Butyryl.
The mark [12] stands for this setting: charge state: 3, modification: Butyryl.

± gives the standard deviation.

Regarding “VETTVTSLKTK [_VETTVTSLK(hydroxyisobutyryl)TK_]”, the collision cross section stood at 389.83 ± 0.81 Å² under setting [1] and 450.94 ± 1.9 Å² under setting [2]. As to “QGNAVTLGDYYQGR [_QGNAVT(HexNAc (ST))LGDYYQGR_]”, the collision cross section under setting [3] amounted to 432.99 ± 0.62 Å². As to “TEVLSPNSKVESK [_TEVLSPNSK(Malonyl)VESK_]”, the collision cross section by setting is: under setting [4], 400.58 ± 1.9 Å²; (charge state: 3, modification: Malonyl) 444.22 ± 3.4 Å².

Turning to IISSIEQKEENK [_IISSIEQK(Succinyl)EENK_], the collision cross section runs as follows: under setting [5], 408.03 ± 0.55 Å²; (charge state: 3, modification: Succinyl) 479.06 ± 2.5 Å². For the sequence “FGTINIVHPKLGSYTK [_FGTINIVHPK(GlyGly (K))LGSYTK_]”, the collision cross section under setting [6] is on record as 511.55 ± 1.9 Å². GSLEKGSPEDK [_GSLEK(Acetyl (K))GSPEDK_]: the collision cross section (charge state: 2, modification: Acetyl (K)) is given as 363.99 ± 0.16 Å². Under setting [7], “PANEKATDDYHYEK [_PANEK(Trimethyl (K))ATDDYHYEK_]” displayed a collision cross section of 499.05 Å². For the sequence “AAQASDLEKIHLDEK [_AAQASDLEK(Trimethyl (K))IHLDEK_]”, the collision cross section was 457.14 Å² (charge state: 2, modification: Trimethyl (K)) and 500.66 ± 1.6 Å² under setting [7]. Regarding GSLEKGSPEDK [_GSLEK(Succinyl)GSPEDK_], under setting [5], the collision cross section was 366.43 ± 0.51 Å². “SLEEEGAAHSGKR [_SLEEEGAAHSGK(Dimethyl (K))R_]”: the collision cross section is given as 412.8 ± 3 Å² (charge state: 2, modification: Dimethyl (K)) and 453.89 ± 1.2 Å² (charge state: 3, modification: Dimethyl (K)).

As to “AQVLAGGRGK [_AQVLAGGR(Citrullination (R))GK_]”, for the setting “charge state: 2, modification: Citrullination (R)”, the collision cross section was found to be 333.54 ± 0.75 Å². Regarding “DASTLQSQKAEGTGDAK [_DASTLQSQK(Crotonyl)AEGTGDAK_]”, the collision cross section is, setting by setting: under setting [8], 438.12 ± 0.54 Å²; under setting [9], 513.07 ± 2.8 Å². Under setting [4], LEKTIDDLEEK [_LEK(Malonyl)TIDDLEEK_] returned a collision cross section of 405.85 ± 0.59 Å². Take “VFIGNLNTLVVKKK [_VFIGNLNTLVVK(Acetyl (K))KK_]”: the collision cross section (charge state: 3, modification: Acetyl (K)) turned out to be 507.56 ± 1 Å². “FNALFAQGNYSEAAK [_FNALFAQGNY(Phospho (Y))SEAAK_]” gave a collision cross section under setting [10] of 426.34 ± 0.64 Å². With LLFSNTAAQKLR [_LLFSNTAAQK(Butyryl)LR_], the collision cross section under setting [11] amounted to 405.4 ± 0.23 Å² and the collision cross section under setting [12] amounted to 483.12 ± 3.2 Å². Taken in the same sequence, the figures for “SNEEGSEEKGPEVR [_SNEEGSEEK(Butyryl)GPEVR_]” were 407.11 ± 0.23 Å² and 490.17 Å². As to “DHSKPISNPSDNK [_DHS(HexNAc (ST))KPISNPSDNK_]”, the collision cross section reads like this: under setting [3], 406.95 ± 0.13 Å²; (charge state: 3, modification: HexNAc (ST)) 479.5 ± 0.17 Å². Sequence “AIEINPDSAQPYK [_AIEINPDSAQPY(Phospho (Y))K_]” gave a collision cross section under setting [10] of 402.87 ± 0.061 Å².

Regarding “TVSKVDDFLANEAK [_TVSK(GlyGly (K))VDDFLANEAK_]”, the collision cross section reads like this: (charge state: 2, modification: GlyGly (K)) 429.63 ± 1.4 Å²; under setting [6], 494.01 ± 1.9 Å².

“LGVATVAKGVCGACK [_LGVATVAK(hydroxyisobutyryl)GVCGACK_]” yielded a collision cross section under setting [1] of 419.46 ± 1.2 Å².

Under setting [1], “IQQELQTAKK [_IQQELQTAK(hydroxyisobutyryl)K_]” registered a collision cross section of 386.63 ± 0.81 Å². For the sequence “VGLQVVAVKAPGFGDNR [_VGLQVVAVK(Methyl (K))APGFGDNR_]”, the collision cross section is 454.02 ± 2.2 Å² (charge state: 2, modification: Methyl (K)) and 491.77 ± 3.2 Å² (charge state: 3, modification: Methyl (K)). As to “DKALPLEAEVAPVK [_DK(Formyl)ALPLEAEVAPVK_]”, the collision cross section (charge state: 2, modification: Formyl) turned out to be 412.02 ± 0.74 Å².

With “VLTANSNPSSPSAAKR [_VLTANSNPSSPSAAK(hydroxyisobutyryl)R_]”, the collision cross section by setting is: under setting [1], 434.9 ± 0.8 Å²; under setting [2], 533.81 ± 2 Å². Consider “ITESVAETAQTIKK [_ITESVAETAQTIK(Crotonyl)K_]”, for which the collision cross section amounted to 424.18 ± 0.81 Å² under setting [8] and 514.18 ± 1.1 Å² under setting [9].
